Assay results as given in article doi:10.1101/2020.12.21.423144 (bioRxiv, 2020).
Where a chain is given by its changes, count along the chain named. Names and notes keep the numbering of the source. “Also recorded” adds a separate entry of the source.

B1: A2AR-P395ΔC (domain or fragment)
chain: MPIMGSSVYITVELAIAVLAILGNVLVCWAVWLNSNLQNVTNYFVVSLAAADIAVGVLAIPFAITISTGFCAACHGCLFIACFVLVLTQSSIFSLLAIAIDRYIAIRIPLRYNGLVTGTRAKGIIAICWVLSFAIGLTPMLGWNNCGQPKEGKNHSQGCGEGQVACLFEDVVPMNYMVYFNFFACVLVPLLLMLGVYLRIFLAARRQLKQMESQPLPGERARSTLQKEVHAAKSLAIIVGLFALCWLPLHIINCFTFFCPDCSHAPLWLMYLAIVLSHTNSVVNPFIYAYRIREFRQTFRKIIRSHVLRQQEPFKAAGTSARVLAAHGSDGEQVSLRLNGHPPGVWANGSAPHPERRPNGYALGLVSGGSAQESQGNTGLPDVELLSHELKGVCP
B2: A2AR-Q372ΔC (domain or fragment)
chain: MPIMGSSVYITVELAIAVLAILGNVLVCWAVWLNSNLQNVTNYFVVSLAAADIAVGVLAIPFAITISTGFCAACHGCLFIACFVLVLTQSSIFSLLAIAIDRYIAIRIPLRYNGLVTGTRAKGIIAICWVLSFAIGLTPMLGWNNCGQPKEGKNHSQGCGEGQVACLFEDVVPMNYMVYFNFFACVLVPLLLMLGVYLRIFLAARRQLKQMESQPLPGERARSTLQKEVHAAKSLAIIVGLFALCWLPLHIINCFTFFCPDCSHAPLWLMYLAIVLSHTNSVVNPFIYAYRIREFRQTFRKIIRSHVLRQQEPFKAAGTSARVLAAHGSDGEQVSLRLNGHPPGVWANGSAPHPERRPNGYALGLVSGGSAQ
B3: A2AR-N359ΔC with the ERR:AAA mutations (domain or fragment)
chain: MPIMGSSVYITVELAIAVLAILGNVLVCWAVWLNSNLQNVTNYFVVSLAAADIAVGVLAIPFAITISTGFCAACHGCLFIACFVLVLTQSSIFSLLAIAIDRYIAIRIPLRYNGLVTGTRAKGIIAICWVLSFAIGLTPMLGWNNCGQPKEGKNHSQGCGEGQVACLFEDVVPMNYMVYFNFFACVLVPLLLMLGVYLRIFLAARRQLKQMESQPLPGERARSTLQKEVHAAKSLAIIVGLFALCWLPLHIINCFTFFCPDCSHAPLWLMYLAIVLSHTNSVVNPFIYAYRIREFRQTFRKIIRSHVLRQQEPFKAAGTSARVLAAHGSDGEQVSLRLNGHPPGVWANGSAPHPAAAPN
B4: A2AR-V334ΔC (domain or fragment)
chain: MPIMGSSVYITVELAIAVLAILGNVLVCWAVWLNSNLQNVTNYFVVSLAAADIAVGVLAIPFAITISTGFCAACHGCLFIACFVLVLTQSSIFSLLAIAIDRYIAIRIPLRYNGLVTGTRAKGIIAICWVLSFAIGLTPMLGWNNCGQPKEGKNHSQGCGEGQVACLFEDVVPMNYMVYFNFFACVLVPLLLMLGVYLRIFLAARRQLKQMESQPLPGERARSTLQKEVHAAKSLAIIVGLFALCWLPLHIINCFTFFCPDCSHAPLWLMYLAIVLSHTNSVVNPFIYAYRIREFRQTFRKIIRSHVLRQQEPFKAAGTSARVLAAHGSDGEQV
B5: A2AR-P354ΔC (domain or fragment)
chain: MPIMGSSVYITVELAIAVLAILGNVLVCWAVWLNSNLQNVTNYFVVSLAAADIAVGVLAIPFAITISTGFCAACHGCLFIACFVLVLTQSSIFSLLAIAIDRYIAIRIPLRYNGLVTGTRAKGIIAICWVLSFAIGLTPMLGWNNCGQPKEGKNHSQGCGEGQVACLFEDVVPMNYMVYFNFFACVLVPLLLMLGVYLRIFLAARRQLKQMESQPLPGERARSTLQKEVHAAKSLAIIVGLFALCWLPLHIINCFTFFCPDCSHAPLWLMYLAIVLSHTNSVVNPFIYAYRIREFRQTFRKIIRSHVLRQQEPFKAAGTSARVLAAHGSDGEQVSLRLNGHPPGVWANGSAPHP
B6: A2AR-C394L (receptor)
chain: MPIMGSSVYITVELAIAVLAILGNVLVCWAVWLNSNLQNVTNYFVVSLAAADIAVGVLAIPFAITISTGFCAACHGCLFIACFVLVLTQSSIFSLLAIAIDRYIAIRIPLRYNGLVTGTRAKGIIAICWVLSFAIGLTPMLGWNNCGQPKEGKNHSQGCGEGQVACLFEDVVPMNYMVYFNFFACVLVPLLLMLGVYLRIFLAARRQLKQMESQPLPGERARSTLQKEVHAAKSLAIIVGLFALCWLPLHIINCFTFFCPDCSHAPLWLMYLAIVLSHTNSVVNPFIYAYRIREFRQTFRKIIRSHVLRQQEPFKAAGTSARVLAAHGSDGEQVSLRLNGHPPGVWANGSAPHPERRPNGYALGLVSGGSAQESQGNTGLPDVELLSHELKGVLPEPPGLDDPLAQDGAGVS
B7: A2AR-C394S (receptor)
chain: B6 chain with L394S
B8: A2AR-C394V (receptor)
chain: B6 chain with L394V
B9: A2AR-C394M (receptor)
chain: B6 chain with L394M
B10: A2AR-FL-ERR:AAA (receptor)
chain: B6 chain with E355A, R356A, R357A, L394C
B11: A2AR-C394A (receptor)
chain: B6 chain with L394A
B12: A2AR-G344ΔC (domain or fragment)
chain: MPIMGSSVYITVELAIAVLAILGNVLVCWAVWLNSNLQNVTNYFVVSLAAADIAVGVLAIPFAITISTGFCAACHGCLFIACFVLVLTQSSIFSLLAIAIDRYIAIRIPLRYNGLVTGTRAKGIIAICWVLSFAIGLTPMLGWNNCGQPKEGKNHSQGCGEGQVACLFEDVVPMNYMVYFNFFACVLVPLLLMLGVYLRIFLAARRQLKQMESQPLPGERARSTLQKEVHAAKSLAIIVGLFALCWLPLHIINCFTFFCPDCSHAPLWLMYLAIVLSHTNSVVNPFIYAYRIREFRQTFRKIIRSHVLRQQEPFKAAGTSARVLAAHGSDGEQVSLRLNGHPPG
B13: A2AR-G349ΔC (domain or fragment)
chain: MPIMGSSVYITVELAIAVLAILGNVLVCWAVWLNSNLQNVTNYFVVSLAAADIAVGVLAIPFAITISTGFCAACHGCLFIACFVLVLTQSSIFSLLAIAIDRYIAIRIPLRYNGLVTGTRAKGIIAICWVLSFAIGLTPMLGWNNCGQPKEGKNHSQGCGEGQVACLFEDVVPMNYMVYFNFFACVLVPLLLMLGVYLRIFLAARRQLKQMESQPLPGERARSTLQKEVHAAKSLAIIVGLFALCWLPLHIINCFTFFCPDCSHAPLWLMYLAIVLSHTNSVVNPFIYAYRIREFRQTFRKIIRSHVLRQQEPFKAAGTSARVLAAHGSDGEQVSLRLNGHPPGVWANG
B14: A2AR-N359ΔC (protein)
chain: B3 chain with A355E, A356R, A357R
B15: human adenosine A2A receptor, full-length wild type (receptor)
chain: B6 chain with L394C

Target: the molecule itself
Assay: SEC

Protein | binding result | dimer level (relative to monomer)
B1 | binds | 
B2 | binds | 
B3 |  | 0.48 arbitrary units
B4 | binds | 
B5 |  | 0.19 arbitrary units
B6 | binds | 
B7 | binds | 
B8 | binds | 
B9 | binds | 
B10 |  | 0.29 arbitrary units
B11 | binds | 
B12 | binds | 
B13 | binds | 

The proteins below were run against P29274 (assay: SEC).

Protein | HMW oligomer level (relative to monomer) | total oligomer level (HMW oligomer and dimer, relative to monomer)
B14 | ctrl: 0.68 | ctrl: 1.01
B3 | ERR:AAA: 0.38 | ERR:AAA: 0.85
B15 | ctrl: 0.88 | ctrl: 1.37; also recorded: WT: 1.34
B10 | ERR:AAA: 0.66 | ERR:AAA: 0.94

Target: the molecule itself
Assay: SDS-PAGE and Western blot densitometry

Protein | dimer level (relative to monomer), with 5 mM TCEP | dimer level (relative to monomer), without TCEP
B15 | 0.51 arbitrary units | 1.14 arbitrary units
